Test results taken from patent US20220235123A1 (UNIVERSITY OF TORONTO, published 2022).

T1: recombinant human vascular endothelial growth factor (hVEGF) 121 (human, UniProt P15692 27-147)
T1 construct: mature; also called human VEGF-A121; hVEGF 121 isoform
T1 sequence (looked up): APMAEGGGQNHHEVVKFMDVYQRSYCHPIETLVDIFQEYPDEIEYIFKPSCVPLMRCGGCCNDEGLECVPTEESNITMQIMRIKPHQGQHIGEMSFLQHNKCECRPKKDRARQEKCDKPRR


Key:
[1] = biological target: T2, recombinant human VEGF 165 isoform (human, UniProt P15692 27-191); assay: competitive ELISA in solution, 10 pM hVEGF-165, free VEGF read with Quantikine kit
T2 construct: mature
Text: Kd calculated from the data fitted with a 5 parameter asymmetric model with Prism software.

[2] = biological target: T1, recombinant human vascular endothelial …; assay: SPR, off rate of hVEGF-121 binding
[3] = biological target: T1, recombinant human vascular endothelial …; assay: Fab-ELISA: Fab titrated on wells coated with 2 ug/mL hVEGF-121, detected with anti-kappa-light-chain-HRP
Text: (§1) FIG. 4a-b. […] The bound Fabs were detected with anti-Kappa-light-chain-HRP-conjugated antibody (B).

[4] = biological target: T1, recombinant human vascular endothelial …; assay: Fab-ELISA: Fab titrated on wells coated with 2 ug/mL hVEGF-121, detected with anti-kappa-light-chain-HRP; Kd estimated from EC50
Text: as §1

T2 sequence (P15692 other isoform, or with tags, fused parts or gaps): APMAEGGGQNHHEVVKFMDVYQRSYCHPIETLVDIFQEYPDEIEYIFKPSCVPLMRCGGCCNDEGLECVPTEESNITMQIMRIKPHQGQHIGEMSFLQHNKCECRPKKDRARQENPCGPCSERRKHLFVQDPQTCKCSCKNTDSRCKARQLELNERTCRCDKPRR

| Kd [1] [nM] | koff [2] [s⁻¹] | Binder | other results |
| --- | --- | --- | --- |
| 0.062 |  | Variant 205 (Fab variant of Clone #201) (Fab, V domains shown) VH: EVQLVESGGGLVQPGGSLRLSCAASGFDLFHYSIHWVRQAPGKGLEWVAYIYPSYGYTYYADSVKGRFTISADTSKNTAYLQMNSLRAEDTAVYYCARHAWYYGWGLDYWGQGTLVTVSS VL: DIQMTQSPSSLSASVGDRVTITCRASQAAYGRVAWYQQKPGKAPKLLIYKDSELYAGVPSRFSGSRSGTDFTLTISSLQPEDFATYYCQQRGWYLFTFGQGTKVEIKR |  |
| 0.028 |  | Variant 209 (Fab variant of Clone #201) (Fab, V domains shown) VH: EVQLVESGGGLVQPGGSLRLSCAASGFDLFHYSIHWVRQAPGKGLEWVAYIYPSYGYTYYADSVKGRFTISADTSKNTAYLQMNSLRAEDTAVYYCARHAWYYGWGLDYWGQGTLVTVSS VL: DIQMTQSPSSLSASVGDRVTITCRASQDAAYGRVAWYQQKPGKAPKLLIYKASELYAGVPSRFSGSRSGTDFTLTISSLQPEDFATYYCQQRGWYLFTFGQGTKVEIKR |  |
|  | 0.000168 | FF03033-5 (Fab, V domains shown, fifth generation Fab from the library based on FF0117-A5) VH: EVQLVESGGGLVQPGGSLRLSCAASGFDLFHYSIHWVRQAPGKGLEWVAYIYPSYGYTYYADSVKGRFTISADTSKNTAYLQMNSLRAEDTAVYYCARHAWYYGWGLDYWGQGTLVTVSS VL: DIQMTQSPSSLSASVGDRVTITCRASQGVGERVAWYQQKPGKAPKLLIYNASHLAGVPSRFSGSRSGTDFTLTISSLQPEDFATYYCQQRGWYLFTFGQGTKVEIK |  |
| 0.014 |  | Variant 206 (Fab variant of Clone #201) (Fab, V domains shown, also called SI; No. 3) VH: EVQLVESGGGLVQPGGSLRLSCAASGFDLFHYSIHWVRQAPGKGLEWVAYIYPSYGYTYYADSVKGRFTISADTSKNTAYLQMNSLRAEDTAVYYCARHAWYYGWGLDYWGQGTLVTVSS VL: DIQMTQSPSSLSASVGDRVTITCRASQAAYGRVAWYQQKPGKAPKLLIYDASELYAGVPSRFSGSRSGTDFTLTISSLQPEDFATYYCQQRGWYLFTFGQGTKVEIKR |  |
| 0.027 |  | Variant 215 (Fab variant of Clone #201) (Fab, V domains shown) VH: EVQLVESGGGLVQPGGSLRLSCAASGFDLFDYSIHWVRQAPGKGLEWVAYIYPSYGYTYYADSVKGRFTISADTSKNTAYLQMNSLRAEDTAVYYCARHAWYYGWGLDYWGQGTLVTVSS VL: DIQMTQSPSSLSASVGDRVTITCRASQAAYGRVAWYQQKPGKAPKLLIYKASELYAGVPSRFSGSRSGTDFTLTISSLQPEDFATYYCQQRGWYLFTFGQGTKVEIKR |  |
|  | < 1e-06 | FF03033-4 (Fab, V domains shown, fifth generation Fab with one residue deleted near the end of CDR-L2; the text says FF03046-1 was made from it by putting the tyrosine back) VH: EVQLVESGGGLVQPGGSLRLSCAASGFDLFHYSIHWVRQAPGKGLEWVAYIYPSYGYTYYADSVKGRFTISADTSKNTAYLQMNSLRAEDTAVYYCARHAWYYGWGLDYWGQGTLVTVSS VL: DIQMTQSPSSLSASVGDRVTITCRASQEGWDRVAWYQQKPGKAPKLLIYSASQLAGVPSRFSGSRSGTDFTLTISSLQPEDFATYYCQQRGWYLFTFGQGTKVEIK |  |
| 0.091 |  | Variant 213 (Fab variant of Clone #201) (Fab, V domains shown) VH: EVQLVESGGGLVQPGGSLRLSCAASGFDLFHYDIHWVRQAPGKGLEWVAYIYPSYGYTYYADSVKGRFTISADTSKNTAYLQMNSLRAEDTAVYYCARHAWYYGWGLDYWGQGTLVTVSS VL: DIQMTQSPSSLSASVGDRVTITCRASQAAYGRVAWYQQKPGKAPKLLIYKASELYAGVPSRFSGSRSGTDFTLTISSLQPEDFATYYCQQRGWYLFTFGQGTKVEIKR |  |
| 0.012 |  | Variant 219 (Fab variant of Clone #201) (Fab, V domains shown, also called SI; No. 9) VH: EVQLVESGGGLVQPGGSLRLSCAASGFDLFHYSIHWVRQAPGKGLEWVAYIYPSYGYTYYADSVKGRFTISADTSKNTAYLQMNSLRAEDTAVYYCARHAWYYGWGLDYWGQGTLVTVSS VL: DIQMTQSPSSLSASVGDRVTITCRASQAAYDRVAWYQQKPGKAPKLLIYKASELYAGVPSRFSGSRSGTDFTLTISSLQPEDFATYYCQQRGWYLFTFGQGTKVEIKR |  |
| 0.026 |  | Variant 220 (Fab variant of Clone #201) (Fab, V domains shown) VH: EVQLVESGGGLVQPGGSLRLSCAASGFDLFHYSIHWVRQAPGKGLEWVAYIYPSYGYTYYADSVKGRFTISADTSKNTAYLQMNSLRAEDTAVYYCARHAWYYGWGLDYWGQGTLVTVSS VL: DIQMTQSPSSLSASVGDRVTITCRASQAAYGDVAWYQQKPGKAPKLLIYKASELYAGVPSRFSGSRSGTDFTLTISSLQPEDFATYYCQQRGWYLFTFGQGTKVEIKR |  |
|  | 0.000236 | FF03033-2 (Fab, V domains shown, fifth generation Fab from the library based on FF0117-A5) VH: EVQLVESGGGLVQPGGSLRLSCAASGFDLFHYSIHWVRQAPGKGLEWVAYIYPSYGYTYYADSVKGRFTISADTSKNTAYLQMNSLRAEDTAVYYCARHAWYYGWGLDYWGQGTLVTVSS VL: DIQMTQSPSSLSASVGDRVTITCRASQVAFYNVAWYQQKPGKAPKLLIYDASILNGVPSRFSGSRSGTDFTLTISSLQPEDFATYYCQQRGWYLFTFGQGTKVEIK |  |
|  | < 1e-06 | FF03033-8 (Fab, V domains shown, fifth generation Fab with one residue deleted near the end of CDR-L2; the text says FF03046-2 was made from it by putting the tyrosine back) VH: EVQLVESGGGLVQPGGSLRLSCAASGFDLFHYSIHWVRQAPGKGLEWVAYIYPSYGYTYYADSVKGRFTISADTSKNTAYLQMNSLRAEDTAVYYCARHAWYYGWGLDYWGQGTLVTVSS VL: DIQMTQSPSSLSASVGDRVTITCRASQAAYGRVAWYQQKPGKAPKLLIYKASELAGVPSRFSGSRSGTDFTLTISSLQPEDFATYYCQQRGWYLFTFGQGTKVEIK |  |
|  | 0.000284 | FF03033-6 (Fab, V domains shown, fifth generation Fab from the library based on FF0117-A5) VH: EVQLVESGGGLVQPGGSLRLSCAASGFDLFHYSIHWVRQAPGKGLEWVAYIYPSYGYTYYADSVKGRFTISADTSKNTAYLQMNSLRAEDTAVYYCARHAWYYGWGLDYWGQGTLVTVSS VL: DIQMTQSPSSLSASVGDRVTITCRASQPREDRVAWYQQKPGKAPKLLIYRASTLAGVPSRFSGSRSGTDFTLTISSLQPEDFATYYCQQRGWYLFTFGQGTKVEIK |  |
| 1.28 |  | Variant 212 (Fab variant of Clone #201) (Fab, V domains shown) VH: EVQLVESGGGLVQPGGSLRLSCAASGFDLFHYSIDWVRQAPGKGLEWVAYIYPSYGYTYYADSVKGRFTISADTSKNTAYLQMNSLRAEDTAVYYCARHAWYYGWGLDYWGQGTLVTVSS VL: DIQMTQSPSSLSASVGDRVTITCRASQAAYGRVAWYQQKPGKAPKLLIYKASELYAGVPSRFSGSRSGTDFTLTISSLQPEDFATYYCQQRGWYLFTFGQGTKVEIKR |  |
|  | 0.000146 | FF03033-3 (Fab, V domains shown, fifth generation Fab from the library based on FF0117-A5) VH: EVQLVESGGGLVQPGGSLRLSCAASGFDLFHYSIHWVRQAPGKGLEWVAYIYPSYGYTYYADSVKGRFTISADTSKNTAYLQMNSLRAEDTAVYYCARHAWYYGWGLDYWGQGTLVTVSS VL: DIQMTQSPSSLSASVGDRVTITCRASQFVGYNVAWYQQKPGKAPKLLIYQASSLAGVPSRFSGSRSGTDFTLTISSLQPEDFATYYCQQRGWYLFTFGQGTKVEIK |  |
|  |  | FF0124-7 (Fab, V domains shown, also called FF0124-7 F2116) VH: EVQLVESGGGLVQPGGSLRLSCAASGFDLYYSYMHWVRQAPGKGLEWVASISSYSGYTSYADSVKGRFTISADTSKNTAYLQMNSLRAEDTAVYYCARGFYYGGWYGIDYWGQGTLVTVSS VL: DIQMTQSPSSLSASVGDRVTITCRASQSVSSAVAWYQQKPGKAPKLLIYSASSLYSGVPSRFSGSRSGTDFTLTISSLQPEDFATYYCQQHYGPITFGQGTKVEIK | EC50 (read off the curve) [3]: ~30 nM; Kd [4]: 33 nM |
|  |  | FF0124-2 (Fab, V domains shown, seventh Fab of the naive library selection; also called FF0124-2 F2083; FF0124 Fab # 2) VH: EVQLVESGGGLVQPGGSLRLSCAASGFDLYYSSMHWVRQAPGKGLEWVASISPSSSYTYYADSVKGRFTISADTSKNTAYLQMNSLRAEDTAVYYCARYYWWHSPFWAYSGLDYWGQGTLVTVSS VL: DIQMTQSPSSLSASVGDRVTITCRASQSVSSAVAWYQQKPGKAPKLLIYSASSLYSGVPSRFSGSRSGTDFTLTISSLQPEDFATYYCQQSGPLFTFGQGTKVEIK | EC50 (read off the curve) [3]: ~50 nM; Kd [4]: 47 nM |
|  |  | FF0124-5 (Fab, V domains shown, also called FF0124-5 F2091) VH: EVQLVESGGGLVQPGGSLRLSCAASGFDISSYYMHWVRQAPGKGLEWVASIYSYSGYTYYADSVKGRFTISADTSKNTAYLQMNSLRAEDTAVYYCARHSVYYWYGSYWYYPSSAMDYWGQGTLVTVSS VL: DIQMTQSPSSLSASVGDRVTITCRASQSVSSAVAWYQQKPGKAPKLLIYSASSLYSGVPSRFSGSRSGTDFTLTISSLQPEDFATYYCQQFWAGYGLITFGQGTKVEIK | EC50 (read off the curve) [3]: ~20 nM; Kd [4]: 19 nM |
|  |  | FF0124-6 (Fab, V domains shown, also called FF0124-6 F2094) VH: EVQLVESGGGLVQPGGSLRLSCAASGFDIYYYSMHWVRQAPGKGLEWVASISSYSGYTSYADSVKGRFTISADTSKNTAYLQMNSLRAEDTAVYYCARYPYYYWAFDYWGQGTLVTVSS VL: DIQMTQSPSSLSASVGDRVTITCRASQSVSSAVAWYQQKPGKAPKLLIYSASSLYSGVPSRFSGSRSGTDFTLTISSLQPEDFATYYCQQSGHYHYPFTFGQGTKVEIK | EC50 (read off the curve) [3]: ~20 nM; Kd [4]: 25 nM |
|  |  | FF0124-4 (Fab, V domains shown, also called FF0124-4 F2088) VH: EVQLVESGGGLVQPGGSLRLSCAASGFDLYSYSIHWVRQAPGKGLEWVASIYSYSGYTYYADSVKGRFTISADTSKNTAYLQMNSLRAEDTAVYYCARGGWYALDYWGQGTLVTVSS VL: DIQMTQSPSSLSASVGDRVTITCRASQSVSSAVAWYQQKPGKAPKLLIYSASSLYSGVPSRFSGSRSGTDFTLTISSLQPEDFATYYCQQGYGPFYSLITFGQGTKVEIK | EC50 (read off the curve) [3]: ~10 nM; Kd [4]: 11 nM |
